The first assay addresses AchR (Homo sapiens, UniProt P02708). The experiment in a line: ELISA of screened peptide phages on AchR versus streptavidin (OD450). In kind it is binding. To be noted: ELISA of selected 11-mer (L2) peptide phages on AchR, absorbance at 450 nm; Spep-2 positive control. The method, then: The output phages for the 4th and 5th rounds of biopanning in Example 13-1 were inoculated to E. coli, and plated on the agar plates so as to form 100-200 plaques per plate. The plaques were inoculated on 1 ml of an SB liquid medium containing 50 μg/ml of ampicillin by using a sterile tip, and cultured with shaking at 37° C. for 5 hours, followed by the addition of 30 μl of helper phages, and then cultured at 37° C. and 200 rpm for one day. The culture was centrifuged at 12,000 rpm for 2 minutes to collect supernatant, and 2% BSA was added to the supernatant, and used for phage screening.
In a 96-well ELISA plate, 5 μg/ml AchR or streptavidin was added at 50 μl per well, and left at 4° C. overnight. The next day, the solution in each well was discarded, followed by the addition of 2% BSA, and then blocked at room temperature for 2 hours. After the solution was all discarded, the wells were washed three times with Tris (20 mM, pH7). In addition, 100 μl of each of the phage solutions obtained from the above-prepared plaques was dispensed into wells and left at 30° C. for 1 hour. After the solution in the wells was all discarded, the wells were washed three times with Tris (20 mM, pH 7), and then the HRP-conjugated anti-M13 antibody diluted 1:2,000 was added at 100 μl per well, followed by culture at 30° C. for 1 hour. After the wells were washed three times with Tris (20 mM, pH7), 100 μl of tetramethylbenzidine was added to each well to induce a color development reaction, and then the reaction was stopped by the addition of 100 μl of 1M H2SO4, and the absorbance at 450 nm (OD450) was measured. The measured absorbance was converted into a ratio of AchR absorbance to streptavidin absorbance (AchR signal/streptavidin signal), and the results are shown in FIGS. 14 to 16.
In general terms: In an ELISA, binding on a coated surface is turned into a signal by an enzyme label.
Chain of AchR (P02708 21-457): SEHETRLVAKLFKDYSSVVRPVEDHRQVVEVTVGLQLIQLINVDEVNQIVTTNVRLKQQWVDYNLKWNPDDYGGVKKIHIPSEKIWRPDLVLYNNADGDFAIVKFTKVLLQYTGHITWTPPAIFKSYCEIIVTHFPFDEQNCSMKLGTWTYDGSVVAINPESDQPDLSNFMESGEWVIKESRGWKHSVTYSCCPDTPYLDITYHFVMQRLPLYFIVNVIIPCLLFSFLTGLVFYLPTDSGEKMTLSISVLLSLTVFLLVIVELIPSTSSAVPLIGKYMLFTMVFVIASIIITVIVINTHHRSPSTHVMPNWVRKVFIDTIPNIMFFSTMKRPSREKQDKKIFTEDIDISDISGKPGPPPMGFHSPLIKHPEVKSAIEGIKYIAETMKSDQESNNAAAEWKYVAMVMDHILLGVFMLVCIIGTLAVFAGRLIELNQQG
The substance “L2-167 (MFMRNKKLAWR; AchR binding peptide) [Peptide L2-167]” registered an OD of 0.584.

With “L2-36 (FIPKMRKCSPR; AchR binding peptide) [Peptide L2-36]”, the OD worked out at 0.76.

“L2-161 (AWFRVKRSNCR; AchR binding peptide) [Peptide L2-161]” gave an OD of 0.579.

“L2-158 (MMTKYKKTCCK; AchR binding peptide) [Peptide L2-158]” had an OD of 0.73.

“L2-142 (DNPRFRKTILK; AchR binding peptide) [Peptide L2-142]” registered an OD of 0.512.

As for “L2-64 (SPFRAKRQDVR; AchR binding peptide) [Peptide L2-64]”, the OD is recorded as 0.683.

“L2-144 (PYTRCRKEICK; AchR binding peptide) [Peptide L2-144]”: the OD amounted to 0.521.

“L2-20 (SWQKCKKAEVR; AchR binding peptide) [Peptide L2-20]”: the OD is given as 0.675.

The substance “L2-134 (VWNKVKRWLER; AchR binding peptide) [Peptide L2-134]” showed an OD of 0.44.

For the substance “L2-187 (TAAKWKKIIMK; AchR binding peptide) [Peptide L2-187]”, the OD is listed as 0.731.

In turn, “L2-192 (EHVKLKRLDFR; AchR binding peptide) [Peptide L2-192]” displayed an OD of 0.685.

With “L2-150 (EDVRVKRQTCR; AchR binding peptide) [Peptide L2-150]”, the OD stood at 0.579.

Substance “L2-68 (GPDKSRRNLHR; AchR binding peptide) [Peptide L2-68]” yielded an OD of 0.721.

Consider “L2-174 (PLFKSRRAYVR; AchR binding peptide) [Peptide L2-174]”, for which the OD was 0.693.

The substance “L2-164 (VPTKMKKYETK; AchR binding peptide) [Peptide L2-164]” showed an OD of 0.733.

“L2-22 (MMMRHKRCQYR; AchR binding peptide) [Peptide L2-22]” came in with an OD of 0.75.

“L2-184 (MHQRERRNFVK; AchR binding peptide) [Peptide L2-184]” displayed an OD of 0.736.

Substance “L2-194 (HLEKHRRCEFK; AchR binding peptide) [Peptide L2-194]” gave an OD of 0.693.

“L2-103 (QYNKGRKIHVR; AchR binding peptide) [Peptide L2-103]” displayed an OD of 0.571.

The same assay, now with this note: ELISA of selected 14-mer (L3) peptide phages on AchR, absorbance at 450 nm; Spep-2 positive control.
With “L3-85 (QLVKLRKLARRVSY; AchR binding peptide) [Peptide L3-85]”, the OD was determined as 0.735.

Substance “L3-71 (PLIKVKRGVGKLWN; AchR binding peptide) [Peptide L3-71]” returned an OD of 0.78.

Regarding “L3-54 (FFLRCRRLLGKVQV; AchR binding peptide) [Peptide L3-54]”, the OD came to 0.784.

“L3-142 (LQCKYRRGSDKTVV; AchR binding peptide) [Peptide L3-142]” showed an OD of 0.502.

For “L3-199 (PQTRYRKYFYRPQM; AchR binding peptide) [Peptide L3-199]”, the OD was determined as 0.781.

Regarding “L3-99 (PCWKFRRAQMKWGI; AchR binding peptide) [Peptide L3-99]”, the OD turned out to be 0.692.

“L3-145 (MHIKMKREQVKDEE; AchR binding peptide) [Peptide L3-145]” had an OD of 0.495.

Consider “L3-169 (FHMKSKKDGDKFVM; AchR binding peptide) [Peptide L3-169]”, for which the OD was 0.783.

Turning to “L3-59 (HVYKNRRVWGKGWP; AchR binding peptide) [Peptide L3-59]”, the OD is 0.659.

In turn, “L3-15 (YEPRFKRPYGKWCH; AchR binding peptide) [Peptide L3-15]” displayed an OD of 0.859.

The substance “L3-194 (WAPRDRRNMGRDPA; AchR binding peptide) [Peptide L3-194]” registered an OD of 0.743.

In the case of “L3-168 (MGLRARKYEDKTLH; AchR binding peptide) [Peptide L3-168]”, the OD came to 0.775.

In the case of “L3-45 (PGNRMKKYQNRVHG; AchR binding peptide) [Peptide L3-45]”, the OD came to 0.735.

“L3-186 (YEHRHKRFFHKDMP; AchR binding peptide) [Peptide L3-186]” gave an OD of 0.799.

For the substance “L3-136 (PFDRARRDLHRIMM; AchR binding peptide) [Peptide L3-136]”, the OD is reported as 0.512.

“L3-96 (EWHKHRREMVRWGP; AchR binding peptide) [Peptide L3-96]” registered an OD of 0.567.

The substance “L3-113 (CLFKYRKSCVRLCG; AchR binding peptide) [Peptide L3-113]” gave an OD of 0.766.

For the substance “L3-184 (DMDKVKKWVWRSFP; AchR binding peptide) [Peptide L3-184]”, the OD is 0.766.

In turn, “L3-98 (PNGKVRKRIRRRYF; AchR binding peptide) [Peptide L3-98]” came in with an OD of 0.685.

“L3-94 (PVLKLRKGRVRAQP; AchR binding peptide) [Peptide L3-94]” had an OD of 0.61.

Consider “L3-165 (YLVKLRRFWAKIDM; AchR binding peptide) [Peptide L3-165]”, for which the OD came to 0.771.

“L3-1 (ALGRTKRLHMRVHV; AchR binding peptide) [Peptide L3-1]” yielded an OD of 0.853.

“L3-170 (CIFKFKKNMFKGYS; AchR binding peptide) [Peptide L3-170]”: the OD came out at 0.768.

The substance “L3-157 (CMLRWKRWHMRFNP; AchR binding peptide) [Peptide L3-157]” displayed an OD of 0.731.

The substance “L3-57 (EEIKQKKLHLRVWF; AchR binding peptide) [Peptide L3-57]” gave an OD of 0.674.

“L3-17 (VGPKFRKNHRRQNR; AchR binding peptide) [Peptide L3-17]”: the OD stood at 0.812.

The substance “L3-178 (PDLKFRKHQDRTAI; AchR binding peptide) [Peptide L3-178]” returned an OD of 0.755.

“L3-163 (PFTKMRKQFQRMSA; AchR binding peptide) [Peptide L3-163]” had an OD of 0.78.

“L3-77 (VLIKQRKWQDRSCS; AchR binding peptide) [Peptide L3-77]” showed an OD of 0.688.

Staying with this assay, now noted: phage ELISA, absorbance at 450 nm, 5 μg/ml AchR; 4th and 5th round biopanning phages.
Substance RIKRNNCK [Peptide L1-130] showed an OD of 0.368.

Consider KKRKSLLR [Peptide L1-159], for which the OD was determined as 0.593.

For KGKRDSNK [Peptide L1-51], the OD was found to be 0.66.

Consider RNKRMDGK [Peptide L1-157], for which the OD stood at 0.585.

Regarding KVKRVWGR [Peptide L1-163], the OD is 0.618.

RMKKFHTR [Peptide L1-128]: the OD is given as 0.301.

As for KDRKVNSR [Peptide L1-97], the OD stood at 0.546.

In turn, RSKRMNGK [Peptide L1-58] yielded an OD of 0.472.

RLRKSLGK [Peptide L1-95] had an OD of 0.535.

As for RQKKPWVK [Peptide L1-31], the OD worked out at 0.604.

For the substance KYKKQHTK [Peptide L1-41], the OD was determined as 0.613.

KWKKMMER [Peptide L1-81] registered an OD of 0.63.

KEKKLVWK [Peptide L1-174] yielded an OD of 0.596.

In turn, RNRKIPLK [Peptide L1-44] showed an OD of 0.59.

RGRRWFVK [Peptide L1-28]: the OD is given as 0.656.

Substance RHKRMLWR [Peptide L1-131] displayed an OD of 0.505.

Substance RCKRFVGK [Peptide L1-173] displayed an OD of 0.63.

Substance KWKRNCTK [Peptide L1-65] came in with an OD of 0.585.

Turning to KRRRFRWK [Peptide L1-40], the OD turned out to be 0.424.

For the substance RQRKSMQR [Peptide L1-27], the OD stood at 0.662.

As for RLKKHCGK [Peptide L1-187], the OD is recorded as 0.668.

The substance “GGRKKRRQRRRGGG [Peptide L3-202, reference compound]” displayed an OD of 0.301.

The substance KPKKGGWK [Peptide L1-148] showed an OD of 0.426.

The substance RHKKFIEK [Peptide L1-59] displayed an OD of 0.479.

As to RARKESHK [Peptide L1-166], the OD is listed as 0.649.

Consider RSRRCPVK [Peptide L1-119], for which the OD turned out to be 0.463.

Substance KARRNSLK [Peptide L1-175] gave an OD of 0.621.

The substance RFRRGVRR [Peptide L1-13] came in with an OD of 0.73.

KDKRWANR [Peptide L1-77] returned an OD of 0.636.

As for RGKKAVRK [Peptide L1-20], the OD is reported as 0.619.

For the substance RGKRGCER [Peptide L1-54], the OD is 0.569.

Values taken from patent US20260000597A1 (priority 2018, published 2026).
